In patent US20210155689A1 (SHANGHAI PHARMAEXPLORER, published 2021):

Key:
[1] = molecular target: T1, human LAG-3 (full length, on the cell surface) (human, UniProt P18627 23-525); experiment: cell-based or functional assay
T1 sequence: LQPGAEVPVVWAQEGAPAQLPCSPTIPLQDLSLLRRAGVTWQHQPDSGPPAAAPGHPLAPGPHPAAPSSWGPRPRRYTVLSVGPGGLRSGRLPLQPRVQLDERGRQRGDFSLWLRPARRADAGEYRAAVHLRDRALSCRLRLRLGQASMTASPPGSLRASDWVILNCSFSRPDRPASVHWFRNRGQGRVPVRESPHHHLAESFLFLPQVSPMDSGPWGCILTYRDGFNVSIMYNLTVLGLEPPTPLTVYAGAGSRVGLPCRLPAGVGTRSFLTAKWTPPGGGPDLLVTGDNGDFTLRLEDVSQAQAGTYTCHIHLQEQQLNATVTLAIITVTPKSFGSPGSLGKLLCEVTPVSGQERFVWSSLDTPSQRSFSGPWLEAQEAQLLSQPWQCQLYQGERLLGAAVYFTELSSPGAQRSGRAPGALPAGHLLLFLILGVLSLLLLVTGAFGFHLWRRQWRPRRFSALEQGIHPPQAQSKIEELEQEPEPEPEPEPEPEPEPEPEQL

[2] = molecular target: T2, human LAG-3 protein with hFc tag (hLAG-3-hFc protein) (human, UniProt P18627 23-450); experiment: FACS, blocks LAG-3-hFc binding to MHC II on Raji; 7.407 nM
T2 construct: also called immunogen 1; LAG-3 extracellular domain protein; not shown: human IgG Fc fragment (hFc) of the pCpC vector
T2 sequence: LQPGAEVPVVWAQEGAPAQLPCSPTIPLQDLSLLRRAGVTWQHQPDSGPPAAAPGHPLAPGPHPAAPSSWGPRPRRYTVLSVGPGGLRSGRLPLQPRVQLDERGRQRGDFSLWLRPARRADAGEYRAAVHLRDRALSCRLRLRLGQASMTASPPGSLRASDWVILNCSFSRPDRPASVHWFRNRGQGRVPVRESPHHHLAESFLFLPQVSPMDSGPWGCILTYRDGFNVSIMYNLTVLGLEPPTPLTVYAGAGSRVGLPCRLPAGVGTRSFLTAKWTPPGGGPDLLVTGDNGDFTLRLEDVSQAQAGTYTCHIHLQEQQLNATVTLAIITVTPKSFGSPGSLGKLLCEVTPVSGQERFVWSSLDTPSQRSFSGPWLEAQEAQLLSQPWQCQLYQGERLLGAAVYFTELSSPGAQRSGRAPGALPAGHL
Procedure: The FACS reaction plate incubating the Raji cells was centrifuged to discard the supernatant. The above mixture was added as 100 μl per well to Raji cells and incubated on ice for 1-2 hours. The plate was washed twice with blocking solution (PBS, 2% fetal bovine serum) by centrifugation, added with 100 microliters of fluorescent (Alexa 488)-labeled secondary antibodies per well, and incubated on ice for 1.0 hours. The plate was washed 2-3 times by centrifugation with blocking solution (PBS, 2% fetal bovine serum), added with 100 microliters of PBS per well to suspend cells, and detected using FACS (FACS Calibur, BD) and the results were analyzed. Wherein, the IgG control was murine IgG, and the data in the table is the inhibition rate (%).

[3] = molecular target: T1, human LAG-3 (full length, on the cell …); experiment: FACS, HEK293-hLAG-3; 200.000 nM
Text: The pIRES plasmid with the monkey-derived full-length gene was transfected into the HEK293 cell line to construct a HEK293 stable cell line containing monkey LAG-3 (herein referred to as HEK293-cLAG-3 stable cell line). The HEK293-hLAG-3 stable cell line and HEK293-cLAG-3 stable cell line were expanded in a T-75 cell culture flask to a 90% confluence. The medium was aspirated, and the cells were washed with HBSS (Hanks' Balanced Salt Solution) 1-2 times, then treated with a enzyme-free cell dissociation fluid (Versene solution: Life technology) and the cells were collected. The cells were washed with HBSS buffer for 1-2 times. After counted, the cells were diluted with HBSS to 1-2×10⁶ cells per ml, added with 1% goat serum blocking solution, incubated on ice for 20-30 minutes, and then washed with HBSS for 2 times by centrifugation. The collected cells were suspended in the FACS buffer (HBSS+1% BSA) to 2×10⁶ cells/ml, added as 100 microliters per well to a 96-well FACS reaction plate, added with 100 microliters per well of the antibody sample to be tested, incubated on ice for 1-2 hours. The plate was washed twice with the FACS buffer by centrifugation, added with 100 microliters of fluorescent (Alexa 488)-labeled secondary antibodies per well, and incubated on ice for 0.5-1.0 hours. The plate was washed 2-3 times with FACS buffer by centrifugation, added with 100 μl fixative solution (4% Paraformaldehyde) per well to suspend the cells. 5-10 minutes later, it was washed 1-2 times with FACS buffer by centrifugation. The cells were suspended with 100 microliters of FACS buffer, FACS (FACSCalibur, BD) was used for detection and the results were analyzed.

B1: 405B8H3 (mouse antibody purified from hybridoma) (antibody, V domains shown)
VH: QVQLQQSGAELVRPGASVTLSCKASGYTFTDYEMHWVKQTPVHGLEWIGATDPETGNSAYNQKFKGKAIMTADKSSSTAYMELRSLTSEDSAVYYCISTGWNDWGQGTSLTVSS
VL: DIKMTQSPSSMYASLGERVTITCKASQDINSYLSWFQQKPGKSPKTLIYRADRLLDGVPSRFSGSGSGQDYSLTISSLEYGDMGIYYCLQYDEFPYTFGGGTKLEIK
notes: also called mAb103-405B8H3; 405B81-13
[1]
  mIL-2 (pg/mL), antigen-specific T lymphocyte stimulation test; antibody 0.016 ug/mL: 205 pg/mL
  mIL-2 (pg/mL), antigen-specific T lymphocyte stimulation test; antibody 0.08 ug/mL: 204 pg/mL
  mIL-2 (pg/mL), antigen-specific T lymphocyte stimulation test; antibody 2 ug/mL: 435 pg/mL
  mIL-2 (pg/mL), antigen-specific T lymphocyte stimulation test; antibody 4 ug/mL (so in the source): 392 pg/mL
  mIL-2 (pg/mL), antigen-specific T lymphocyte stimulation test; antibody 10 ug/mL: 441 pg/mL
[2]
  Inhibition rate (%): 87.3%
[3]
  Mean fluorescence intensity: 324 MFI

B2: 409B11E12 (mouse antibody purified from hybridoma) (antibody, V domains shown)
VH: QVQLQQSGAELVRPGASVTLSCKASGYTFTDYEMHWVKQTTVHGLEWIGATDPETSYSAYNQKFKGKAILTADKSSSTAYMELRSLTSEDSAVYYCIATGWNDWGQGTSLTVSS
VL: DLKMTQSPSSMYASLGERVTITCKASQDINSYLSWFQQKPGKSPKTLIYRANRLLDGVPSRFSGSGSGQDYSLTISSLEYEDMGIYYCLQYDEFPYTFGGGTKLEIK
notes: also called mAb104-409B11E12
[1]
  mIL-2 (pg/mL), antigen-specific T lymphocyte stimulation test; antibody 0.016 ug/mL: 187 pg/mL
  mIL-2 (pg/mL), antigen-specific T lymphocyte stimulation test; antibody 0.08 ug/mL: 183 pg/mL
  mIL-2 (pg/mL), antigen-specific T lymphocyte stimulation test; antibody 2 ug/mL: 376 pg/mL
  mIL-2 (pg/mL), antigen-specific T lymphocyte stimulation test; antibody 4 ug/mL (so in the source): 374 pg/mL
  mIL-2 (pg/mL), antigen-specific T lymphocyte stimulation test; antibody 10 ug/mL: 364 pg/mL
[2]
  Inhibition rate (%): 93.4%
[3]
  Mean fluorescence intensity: 144 MFI

B3: 409D4E10 (mouse antibody purified from hybridoma) (antibody, V domains shown)
VH: QVQLQQSGAELVRPGASVTLSCKASGNTFTDYEMHWVKQTPVHGLEWIGATDPETDNTAYNQKFKGKAILTTDKSSSTAYMELRSLTSEDSAVYYCITSGWNDWGQGTSLTVSS
VL: DIKMTQSPSSMYASLGERVTITCKASQDINSYLSWFQQKPGKSPKTLIYRANRLLDGVPSRFSGSGSGQDYSLTISSLEYEDMGIYYCLQYNEFPYTFGGGTKLEIK
notes: also called mAb112-409D4E10
[1]
  mIL-2 (pg/mL), antigen-specific T lymphocyte stimulation test; antibody 0.016 ug/mL: 172 pg/mL
  mIL-2 (pg/mL), antigen-specific T lymphocyte stimulation test; antibody 0.08 ug/mL: 175 pg/mL
  mIL-2 (pg/mL), antigen-specific T lymphocyte stimulation test; antibody 2 ug/mL: 346 pg/mL
  mIL-2 (pg/mL), antigen-specific T lymphocyte stimulation test; antibody 4 ug/mL (so in the source): 261 pg/mL
  mIL-2 (pg/mL), antigen-specific T lymphocyte stimulation test; antibody 10 ug/mL: 335 pg/mL
[2]
  Inhibition rate (%): 93%
[3]
  Mean fluorescence intensity: 154 MFI

B4: 556F6B8 (mouse antibody purified from hybridoma) (antibody, V domains shown)
VH: RVQLKQSGPGLVQPSQSLSITCTVSGFSLIKYGVHWVRQSPGEGLEWLGVIWRGGITDYNAAFMSRLSITKDNSKSQVFFKMNSLQADDTAIYYCAKWDGPLAMDYWGQGTSVTVSS
VL: DIVMTQSHKFLSTSVGDRVSITCKASQDVGTTVAWYQQKPGQSPKLLIYWASTRHTGVPDRFTGSGSGTDFTLTISNVQSEDLADYFCQQYSSYPYTFGGGTKLEIK
notes: also called mAb123-556F6B8
[1]
  mIL-2 (pg/mL), antigen-specific T lymphocyte stimulation test; antibody 0.016 ug/mL: 88.3 pg/mL
  mIL-2 (pg/mL), antigen-specific T lymphocyte stimulation test; antibody 0.08 ug/mL: 141 pg/mL
  mIL-2 (pg/mL), antigen-specific T lymphocyte stimulation test; antibody 2 ug/mL: 270 pg/mL
  mIL-2 (pg/mL), antigen-specific T lymphocyte stimulation test; antibody 4 ug/mL (so in the source): 214 pg/mL
  mIL-2 (pg/mL), antigen-specific T lymphocyte stimulation test; antibody 10 ug/mL: 255 pg/mL
[2]
  Inhibition rate (%): 93.3%
[3]
  Mean fluorescence intensity: 83.7 MFI

B5: 105F1E10 (mouse antibody purified from hybridoma) (antibody, V domains shown)
VH: EVQLQQSGPELVKPGASVKMSCRASGYTFTDFKMHWMKQSHGKSLEWIGYIAPNNGGTAYNQKFRGKATLTVNESSNTAYMELRSLTSEDSAVYYCVDWDDVDYWGQGTTLTVSS
VL: DIKMTQSPSSMYASLGERVTITCKASQDINSYLSWFQQKSGKSPKTLIYRANRLVDGVPSRFSGSGSGQDYSLTISSLEYEDMGIYYCLQYVEFPLTFGAGTKLELK
notes: also called mAb009-105F1E10
[2]
  Inhibition rate (%): 81%
[3]
  Mean fluorescence intensity: 330 MFI
